Positions of bridges follow the written chain, without caps; N, C: chain ends. No end group written: not given here. COCH2 = acetyl group that carries the bridge
Molecular target: T1, Recombinant Human FGFR1 alpha (IIIc) Fc Chimera Protein (Homo sapiens, UniProt P11362)
T1 construct: purchased R&D systems 658-FR-050
Assay: ELISA binding affinity of enzymatically synthesized peptide to FGFR
Conditions: ELISA luminescence signal at 10 nmol/L peptide, SEQ ID NO: 239 standardized to 1; enzyme synthesis product
Method in brief: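 Cell-free PUREfrex-translated cyclic peptides (Myc/HiBiT-tagged, quantified by HiBiT luminescence) bound 3 h at room temperature to immobilized FGFR1α(IIIc)-Fc, detected with anti-Myc and chemiluminescence. FGFR-specific signal at 10 nmol/L normalized to a reference cyclic peptide and graded A–D.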

T1 sequence (P11362 with tags, fused parts or gaps limits assumed): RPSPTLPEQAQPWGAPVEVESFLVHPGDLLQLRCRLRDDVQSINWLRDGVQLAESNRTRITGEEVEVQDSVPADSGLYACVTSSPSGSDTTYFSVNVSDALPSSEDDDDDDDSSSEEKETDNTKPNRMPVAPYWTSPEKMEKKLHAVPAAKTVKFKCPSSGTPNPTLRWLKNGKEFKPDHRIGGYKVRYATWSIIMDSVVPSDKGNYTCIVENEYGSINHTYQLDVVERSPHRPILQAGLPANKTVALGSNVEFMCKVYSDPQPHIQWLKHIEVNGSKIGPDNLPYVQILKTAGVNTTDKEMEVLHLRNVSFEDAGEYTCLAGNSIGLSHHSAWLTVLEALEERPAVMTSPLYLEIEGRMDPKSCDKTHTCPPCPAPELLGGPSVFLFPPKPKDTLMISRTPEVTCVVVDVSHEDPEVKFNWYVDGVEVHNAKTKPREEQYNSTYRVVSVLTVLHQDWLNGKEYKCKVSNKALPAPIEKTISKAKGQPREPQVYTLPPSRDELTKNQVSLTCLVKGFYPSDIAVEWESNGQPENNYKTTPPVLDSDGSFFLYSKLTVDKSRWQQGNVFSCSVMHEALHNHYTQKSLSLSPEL

Evaluation result of binding affinity to FGFR | Substance
A (0.7 or more) | 239 (ACVWTFDRHAQEISQALHKV; not fully specified (residue 19, bridges); also: cyclic peptide, ring not given here) [compound 239]
C (0.1 or more and less than 0.5) | 139 (ICVYTFDAHAWSLHAALTKI; Description of Artificial Sequence: Cyclic peptide) [compound 139]
B (0.5 or more and less than 0.7) | 242 (ACGVHQWEIGEWFGYRYYYK(COCH2)P; thioether 2-20 (inferred)) [compound 242]
A (0.7 or more) | 232 (ICVYTFDAHAHSLHAALTK(COCH2)Q; thioether 2-19 (inferred)) [compound 232]
A (0.7 or more) | 280 (PCPVWGDYGAVHQYGWK(COCH2)V; thioether 2-17 (inferred)) [compound 280]
C (0.1 or more and less than 0.5) | 194 (ICVYTFDAHAHSLHIALTK(COCH2)I; thioether 2-19 (inferred)) [compound 194]
C (0.1 or more and less than 0.5) | 88 (ICVYTFSAHAHSLHAALTK(COCH2)I; thioether 2-19 (inferred)) [compound 88]
A (0.7 or more) | 275 (LCPLYAWQTLYQYGWK(COCH2)V; thioether 2-16 (inferred)) [compound 275]
C (0.1 or more and less than 0.5) | 65 (ICVYGFDAHAHSLHAALTK(COCH2)I; thioether 2-19 (inferred)) [compound 65]
C (0.1 or more and less than 0.5) | 213 (ICVYTFDAHAHSLHAATTK(COCH2)I; thioether 2-19 (inferred)) [compound 213]
A (0.7 or more) | 324 (ICVYTFDANAHSLHDALTK(COCH2)I; thioether 2-19 (inferred)) [compound 324]
C (0.1 or more and less than 0.5) | 86 (ICVYTFWAHAHSLHAALTK(COCH2)I; thioether 2-19 (inferred)) [compound 86]
C (0.1 or more and less than 0.5) | 262 (WCNFANVWTFNKS; Description of Artificial Sequence: Cyclic peptide) [compound 262]
B (0.5 or more and less than 0.7) | 56 (ICLYTFDAHAHSLHAALTK(COCH2)I; thioether 2-19 (inferred)) [compound 56]
C (0.1 or more and less than 0.5) | 214 (ICVYTFDAHAHSLHAALAK(COCH2)I; thioether 2-19 (inferred)) [compound 214]
A (0.7 or more) | 143 (ICVYTFDAHATSLHAALTK(COCH2)I; thioether 2-19 (inferred)) [compound 143]
B (0.5 or more and less than 0.7) | 265 (VCIYTWDRQSWPVKL; Description of Artificial Sequence: Cyclic peptide) [compound 265]
B (0.5 or more and less than 0.7) | 102 (ICVYTFDHHAHSLHAALTKI; Description of Artificial Sequence: Cyclic peptide) [compound 102]
C (0.1 or more and less than 0.5) | 91 (ICVYTFDLHAHSLHAALTK(COCH2)I; thioether 2-19 (inferred)) [compound 91]
C (0.1 or more and less than 0.5) | 263 (QCYHIIVYTFVKP; Description of Artificial Sequence: Cyclic peptide) [compound 263]

Evaluation result of binding affinity to FGFR | Substance
C (0.1 or more and less than 0.5) | 212 (ICVYTFDAHAHSLHAAFTK(COCH2)I; thioether 2-19 (inferred)) [compound 212]
C (0.1 or more and less than 0.5) | 118 (ICVYTFDAHGHSLHAALTKI; Description of Artificial Sequence: Cyclic peptide) [compound 118]
A (0.7 or more) | 132 (ICVYTFDAHAGSLHAALTKI; Description of Artificial Sequence: Cyclic peptide) [compound 132]
A (0.7 or more) | 140 (ICVYTFDAHANSLHAALTK(COCH2)I; thioether 2-19 (inferred)) [compound 140]
C (0.1 or more and less than 0.5) | 154 (ICVYTFDAHAHWLHAALTK(COCH2)I; thioether 2-19 (inferred)) [compound 154]
A (0.7 or more) | 70 (ICVYSFDAHAHSLHAALTK(COCH2)I; thioether 2-19 (inferred)) [compound 70]
C (0.1 or more and less than 0.5) | 208 (ICVYTFDAHAHSLHAVLTK(COCH2)I; thioether 2-19 (inferred)) [compound 208]
A (0.7 or more) | 298 (ICVYTFDAHAHSLHDALTK(COCH2)V; thioether 2-19 (inferred)) [compound 298]
C (0.1 or more and less than 0.5) | 151 (ICVYTFDAHAHVLHAALTK(COCH2)I; thioether 2-19 (inferred)) [compound 151]
A (0.7 or more) | 304 (ICVYTFDAHAHSLDDALTK(COCH2)Q; thioether 2-19 (inferred)) [compound 304]
A (0.7 or more) | 236 (ICVYTFDAHAHSLHAALTK(COCH2)H; thioether 2-19 (inferred)) [compound 236]
C (0.1 or more and less than 0.5) | 286 (HCLWSLHSFYTFKAWAK(COCH2)I; thioether 2-17 (inferred)) [compound 286]
B (0.5 or more and less than 0.7) | 326 (IK(COCH2)VYTFDAHAHSLDAALTCI; thioether 2-19 (inferred)) [compound 326]
A (0.7 or more) | 307 (FCVYTFDAHAHSLDAALTK(COCH2)I; thioether 2-19 (inferred)) [compound 307]
C (0.1 or more and less than 0.5) | 193 (ICVYTFDAHAHSLHLALTK(COCH2)I; thioether 2-19 (inferred)) [compound 193]
C (0.1 or more and less than 0.5) | 66 (ICVYLFDAHAHSLHAALTK(COCH2)I; thioether 2-19 (inferred)) [compound 66]
C (0.1 or more and less than 0.5) | 276 (ECIYTFDPQRHPVLVK(COCH2)V; thioether 2-16 (inferred)) [compound 276]
A (0.7 or more) | 297 (ICVYTFDAHAHSLHDALNK(COCH2)I; thioether 2-19 (inferred)) [compound 297]
B (0.5 or more and less than 0.7) | 76 (ICVYTYDAHAHSLHAALTK(COCH2)I; thioether 2-19 (inferred)) [compound 76]
C (0.1 or more and less than 0.5) | 251 (TCWTAWQWFGHWVPFVAK(COCH2)T; thioether 2-18 (inferred)) [compound 251]
